Assay results from EP4667483A1 (JCR Pharmaceuticals Co., Ltd., dated 2024).
Numbered stars: 1 amine (or outer) side, 2 acyl side, 3 side chain; on linkers, the order of the positions; unused ones are H or OH. Bridge positions count the residues as written; N and C are the ends. Square brackets hold non-standard residues; d marks the D form. Primed or numbered codes have the meaning given here. Ends that are not written are not given here. * marks the point of attachment. F4aao = 4-(carboxymethoxy)-L-phenylalanine, O=C([C@H](Cc1ccc(OCC(=O)[*:3])cc1)N[*:1])[*:2]; NH(1-deoxy-D-glucityl) = OC[C@@H](O)[C@@H](O)[C@H](O)[C@@H](O)CN*; PEG4c = amino-tetraoxa (PEG4) carboxylic acid spacer; NMePhe(4-COOH) = CN[C@@H](Cc1ccc(C(=O)O)cc1)C(=O)O; Tyr(Me) = COc1ccc(C[C@H](N[*:1])C(=O)[*:2])cc1; NMePhe(3-Cl) = CN[C@@H](Cc1cccc(Cl)c1)C(=O)O; Piperazinyl(4-CH2COOH) = O=C(O)CN1CCN(*)CC1; 3Pal(6-NH2) = Nc1ccc(C[C@H](N)C(=O)O)cn1; NMeW = CN[C@@H](Cc1c[nH]c2ccccc12)C(=O)O; Lys(N3) = [N-]=[N+]=NCCCC[C@H](N)C(=O)O; NMeY = CN[C@@H](Cc1ccc(O)cc1)C(=O)O; Nva(3-Et) = CCC(CC)[C@H](N)C(=O)O; NMeF = CN[C@@H](Cc1ccccc1)C(=O)O; F3COO(PEG4c) = not defined here; PEG4c(3) = PEG4 linker acid; PEG4c″ = not defined here

B1: 894_0601 (peptide)
peptide: AVXVWNXYIIKRYXC
modifications: not fully specified; as printed: A-V-MeF-V-W-N-3Py6NH2-Y-I-I-K-R-Y-MeY-C; linker PEG4c; cyclic (ClAc-Ala1 thioether to Cys15)
B2: 894_3486 (peptide)
peptide: {CH2CO}-AV[NMeF]V[NMeW]N[3Pal(6-NH2)]YIIKRY[NMePhe(4-COOH)]CG[Lys(N3)]-NH2
modifications: thioether N-15
SMILES: CC[C@H](C)[C@@H]1NC(=O)[C@H](Cc2ccc(O)cc2)NC(=O)[C@H](Cc2ccc(N)nc2)NC(=O)[C@H](CC(N)=O)NC(=O)[C@H](Cc2c[nH]c3ccccc23)N(C)C(=O)[C@H](C(C)C)NC(=O)[C@H](Cc2ccccc2)N(C)C(=O)[C@H](C(C)C)NC(=O)[C@H](C)NC(=O)CSC[C@@H](C(=O)NCC(=O)N[C@@H](CCCCN=[N+]=[N-])C(N)=O)NC(=O)[C@H](Cc2ccc(C(=O)O)cc2)N(C)C(=O)[C@H](Cc2ccc(O)cc2)NC(=O)[C@H](CCCNC(=N)N)NC(=O)[C@H](CCCCN)NC(=O)[C@H]([C@@H](C)CC)NC1=O
B3: 894_3435 (peptide)
peptide: AVXVWNYYIIXRYXC
modifications: as printed: A-V-MeF-V-W-N-Y-Y-I-I-E(PEG8Me)-R-Y-MeY-C; linker G-KN3; cyclic (ClAc-Ala1 thioether to Cys15)
B4: 894_3488 (peptide)
peptide: AVXVXNYYIIKRXXC
modifications: as printed: A-V-MeF-V-MeW-N-Y-Y-I-I-K-R-F3COO(PEG4c)-MeF4COO-C; linker G-KN3-NH2; cyclic (ClAc-Ala1 thioether to Cys15)
B5: 894_0607 (peptide)
peptide: AVXVXNYYIIKRXXC
modifications: not fully specified; as printed: A-V-MeF3C-V-W1Me-N-Y-Y-I-I-K-R-4Py-MeY-C; linker PEG4c; cyclic (ClAc-Ala1 thioether to Cys15)
B6: 894_3498 (peptide)
peptide: AVXVXNXYIIKRYXC
modifications: as printed: A-V-MeF-V-MeW-N-3Py6NH2-Y-I-I-K-R-Y-MeF4COO-C; linker G-de-de-de-ds-ds-KN3-NH2; cyclic (ClAc-Ala1 thioether to Cys15)
B7: 894_0602 (peptide)
peptide: AVXVXNXYIIKRYXC
modifications: not fully specified; as printed: A-V-MeF-V-MeW-N-3Py6NH2-Y-I-I-K-R-Y-MeY-C; linker PEG4c; cyclic (ClAc-Ala1 thioether to Cys15)
B8: 894_0619 (peptide)
peptide: {CH2CO}-AV[NMeF]V[NMeW]N[3Pal(6-NH2)]YI[code s]KRY[NMeY]C
modifications: thioether N-15; also: linker PEG4c attached, place not given here
notes: Position 10 is printed as lower-case 's'
B9: 894_0620 (peptide)
peptide: {CH2CO}-AV[NMePhe(3-Cl)]V[NMeW]N[3Pal(6-NH2)]YI[code s]KRY[NMeY]C
modifications: thioether N-15; also: linker PEG4c attached, place not given here
notes: as for B8
B10: 894_0636 (peptide)
peptide: AVXVXNYXIIKRFXC
modifications: as printed: A-V-MeF3C-V-MeW-N-Y-F4OMe-I-I-K-R-F-MeY-C; linker PEG4c-NH2; cyclic (ClAc-Ala1 thioether to Cys15)
B11: 894_0637 (peptide)
peptide: AVXVXNYXIIQRFXC
modifications: as printed: A-V-MeF3C-V-MeW-N-Y-F4OMe-I-I-Q-R-F-MeY-C; linker PEG4c-NH2; cyclic (ClAc-Ala1 thioether to Cys15)
B12: 894_0616 (peptide)
peptide: AVXVXNYYXIKRYXC
modifications: as printed: A-V-Me3Py-V-MeW-N-Y-Y-Eva-I-K-R-Y-MeY-C; linker PEG4c; cyclic (ClAc-Ala1 thioether to Cys15)
B13: 894_3436 (peptide)
peptide: AVXVWNYYIIRRXXC
modifications: as printed: A-V-MeF-V-W-N-Y-Y-I-I-R-R-F3COO(PEG8Me)-MeY-C; linker G-KN3; cyclic (ClAc-Ala1 thioether to Cys15)
B14: 894_0615 (peptide)
peptide: AVXVXNYYIIKRYXC
modifications: as printed: A-V-Me3Py-V-MeW-N-Y-Y-I-I-K-R-Y-MeY-C; linker PEG4c; cyclic (ClAc-Ala1 thioether to Cys15)

What was measured:
[1] = biological target: T1, human transferrin receptor (hTfR) (human, UniProt P02786 89-760); test: SPR, KD at pH 6.0 over KD at pH 7.4
T1 construct: Recombinant hTfR; at pH 7.4 captured on the chip by an anti-His tag antibody, at pH 6.0 immobilized on an NTA chip, so it carries a His tag; also called human TfR; TfR1
T1 sequence (P02786 89-760 limits assumed): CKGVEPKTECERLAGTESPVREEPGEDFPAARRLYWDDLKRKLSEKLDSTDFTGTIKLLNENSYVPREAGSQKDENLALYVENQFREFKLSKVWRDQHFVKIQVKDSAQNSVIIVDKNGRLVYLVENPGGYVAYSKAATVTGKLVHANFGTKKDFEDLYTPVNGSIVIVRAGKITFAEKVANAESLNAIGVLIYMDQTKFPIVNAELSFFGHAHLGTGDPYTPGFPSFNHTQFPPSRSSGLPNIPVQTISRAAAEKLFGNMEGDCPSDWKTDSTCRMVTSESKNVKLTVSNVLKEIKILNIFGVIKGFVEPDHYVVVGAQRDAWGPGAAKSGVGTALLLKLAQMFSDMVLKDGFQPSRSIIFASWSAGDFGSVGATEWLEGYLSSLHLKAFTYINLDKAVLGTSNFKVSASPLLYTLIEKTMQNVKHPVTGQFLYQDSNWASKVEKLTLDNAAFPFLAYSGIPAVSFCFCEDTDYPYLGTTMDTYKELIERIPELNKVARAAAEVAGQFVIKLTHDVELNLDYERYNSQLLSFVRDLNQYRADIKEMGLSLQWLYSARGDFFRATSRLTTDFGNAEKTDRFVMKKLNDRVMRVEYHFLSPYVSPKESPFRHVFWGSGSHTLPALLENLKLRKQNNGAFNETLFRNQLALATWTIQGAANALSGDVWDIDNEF

[2] = biological target: T1, human transferrin receptor (hTfR); test: SPR, koff at pH 6.0 over koff at pH 7.4
[3] = biological target: T1, human transferrin receptor (hTfR); test: SPR (Biacore T200), pH 6.0, hTfR on chip
[4] = biological target: T1, human transferrin receptor (hTfR); test: SPR (Biacore T200), pH 7.4, hTfR on chip
[5] = biological target: T1, human transferrin receptor (hTfR); test: SPR, KD at pH 6.0 over KD at pH 7.4; remark: listed apart in the source
[6] = biological target: T1, human transferrin receptor (hTfR); test: SPR, koff at pH 6.0 over koff at pH 7.4; remark: listed apart in the source
[7] = biological target: T1, human transferrin receptor (hTfR); test: SPR (Biacore T200), pH 6.0, hTfR on chip; remark: listed apart in the source
[8] = biological target: T1, human transferrin receptor (hTfR); test: SPR (Biacore T200), pH 7.4, hTfR on chip; remark: listed apart in the source
[9] = biological target: T1, human transferrin receptor (hTfR); test: SPR, KD at pH 6.0 over KD at pH 7.4; remark: listed apart in the source
[10] = biological target: T1, human transferrin receptor (hTfR); test: SPR, koff at pH 6.0 over koff at pH 7.4; remark: listed apart in the source
[11] = biological target: T1, human transferrin receptor (hTfR); test: SPR (Biacore T200), pH 6.0, hTfR on chip; remark: listed apart in the source
[12] = biological target: T1, human transferrin receptor (hTfR); test: SPR (Biacore T200), pH 7.4, hTfR on chip; remark: listed apart in the source
[13] = biological target: T2, human transferrin receptor (hTfR) (human, UniProt P02786 89-760); test: SPR, pH 6.0
T2 construct: a His tag is implied by the NTA chip and the anti-His capture; also called human TfR; TfR1
T2 sequence (P02786 89-760 limits assumed): as above

[14] = biological target: T2, human transferrin receptor (hTfR); test: SPR, pH 7.4
[15] = biological target: T2, human transferrin receptor (hTfR); test: SPR, KD pH 6.0 / KD pH 7.4
[16] = biological target: T2, human transferrin receptor (hTfR); test: SPR, koff pH 6.0 / koff pH 7.4

Row | Binder | dependency KD pH6.0/7.4 [5] | dependency koff pH6.0/7.4 [6] | Kd [7] [nM] | Kd [8] [nM] | further results
1 | {CH2CO}-AV[NMePhe(3-Cl)]V[NMeW]NY[F4aao]IIKRF[NMeY]C-{PEG4c(3)-NH2} (thioether N-15) [894_0644] |  |  |  |  | dependency KD pH6.0/7.4 [1]: 2.37; dependency koff pH6.0/7.4 [2]: 4.92; Kd [3]: 0.764 nM; Kd [4]: 0.322 nM
2 | B1 | 3.28 | 8.89 | 17.4 | 5.3 | 
3 | B2 |  |  |  |  | dependency KD pH6.0/7.4 [9]: 4.73; dependency koff pH6.0/7.4 [10]: 8.92; Kd [11]: 13.9 nM; Kd [12]: 2.94 nM
4 | B3 | 3.55 | 6.89 | 41.2 | 11.6 | 
5 | B4 |  |  |  |  | dependency KD pH6.0/7.4 [9]: 3.22; dependency koff pH6.0/7.4 [10]: 5.15; Kd [11]: 5.15 nM; Kd [12]: 1.6 nM
6 | {CH2CO}-AV[NMeF]VWN[3Pal(6-NH2)]YIIKRY[NMePhe(4-COOH)]C (thioether N-15; not fully specified (C-terminus)) [894_0603] | 4.79 | 11.3 | 35 | 7.31 | 
7 | B5 | 3.74 | 7.49 | 2.04 | 0.546 | 
8 | B6 |  |  |  |  | dependency KD pH6.0/7.4 [9]: 7.71; dependency koff pH6.0/7.4 [10]: 10.8; Kd [11]: 145 nM; Kd [12]: 18.8 nM
9 | B7 | 2.97 | 6.5 | 18.9 | 6.37 | 
10 | B8 | 4.57 | 12.2 | 126 | 27.6 | 
11 | B9 | 3.26 | 12.5 | 16.2 | 4.97 | 
12 | {CH2CO}-AV[NMePhe(3-Cl)]VWNY[F4aao](Piperazinyl(4-CH2COOH))IIE(NH(1-deoxy-D-glucityl))QF[NMeY]C-{PEG4c-NH2} (thioether N-15) [894_0510 (SEQ ID NO: 37)] |  |  |  |  | Kd [13]: 27.9 nM; Kd [14]: 1.54 nM; dependency KD pH6.0/7.4 [15]: 18.1; dependency koff pH6.0/7.4 [16]: 33.9
13 | {CH2CO}-AV[NMePhe(3-Cl)]V[NMeW]NY[F4aao]IIKRF[NMePhe(4-COOH)](PEG4c(3))C-{PEG4c(3)-NH2} (thioether N-15) [894_0647] |  |  |  |  | dependency KD pH6.0/7.4 [1]: 5.35; dependency koff pH6.0/7.4 [2]: 9.27; Kd [3]: 0.76 nM; Kd [4]: 0.142 nM
14 | B10 |  |  |  |  | dependency KD pH6.0/7.4 [1]: 3.58; dependency koff pH6.0/7.4 [2]: 5.55; Kd [3]: 0.81 nM; Kd [4]: 0.226 nM
15 | {CH2CO}-AV[NMePhe(3-Cl)]V[NMeW]NR[Tyr(Me)]IIKRF[NMeY]C-{PEG4c″-NH2} (thioether N-15; reading uncertain) [894_0641] |  |  |  |  | dependency KD pH6.0/7.4 [1]: 3.49; dependency koff pH6.0/7.4 [2]: 3.44; Kd [3]: 13.3 nM; Kd [4]: 3.81 nM
16 | {CH2CO}-AV[NMePhe(3-Cl)]V[NMeW]NR[Tyr(Me)]IIQRF[NMeY]C-{PEG4c(3)-NH2} (thioether N-15) [894_0642] |  |  |  |  | dependency KD pH6.0/7.4 [1]: 3.67; dependency koff pH6.0/7.4 [2]: 4.85; Kd [3]: 75.5 nM; Kd [4]: 20.6 nM
17 | B11 |  |  |  |  | dependency KD pH6.0/7.4 [1]: 5.66; dependency koff pH6.0/7.4 [2]: 9.23; Kd [3]: 4.86 nM; Kd [4]: 0.859 nM
18 | B12 | 1.22 | 3.41 | 50.8 | 41.7 | 
19 | B13 | 3.36 | 5.75 | 6.72 | 2 | 
20 | {CH2CO}-AV[NMeF]VWNRYIIRR[F3COO(PEG4c)][NMePhe(4-COOH)]CG[Lys(N3)]-NH2 (thioether N-15; reading uncertain) [894_3491] |  |  |  |  | dependency KD pH6.0/7.4 [9]: 3.73; dependency koff pH6.0/7.4 [10]: 2.44; Kd [11]: 799 nM; Kd [12]: 214 nM
21 | {CH2CO}-AV[NMeF]V[NMeW]NYY[Nva(3-Et)]IKRY[NMePhe(4-COOH)]C (thioether N-15; not fully specified (C-terminus)) [894_0593] | 2.64 | 3.72 | 9.52 | 3.61 | 
22 | {CH2CO}-AV[NMePhe(3-Cl)]V[NMeW]NYY[Nva(3-Et)]SKRY[NMeY]C (thioether N-15; not fully specified (C-terminus)) [894_0612] | 2.33 | 6.71 | 13.2 | 5.67 | 
23 | {CH2CO}-AV[NMeF]V[NMeW]NYY[Nva(3-Et)]SKRY[NMeY]C (thioether N-15; not fully specified (C-terminus)) [894_0611] | 2.18 | 4.83 | 66.3 | 30.4 | 
24 | {CH2CO}-AV[NMeF]V[NMeW]N[3Pal(6-NH2)]YIIKRY[NMePhe(4-COOH)]C (thioether N-15; not fully specified (C-terminus)) [894_0604] | 4.76 | 7.83 | 16.7 | 3.51 | 
25 | B14 | 0.92 | 2.87 | 15.3 | 16.6 | 
